Assays:
[1] = biological target: GST-WASP(201–321) K225A (UniProt P42768); experiment: scintillation proximity assay (SPA); 5 nM GST-WASP variant immobilised on protein A SPA fluoromicrospheres via an anti-GST antibody; varying concentrations of [3H]GTP·Cdc42; direct binding isotherm; apparent Kd; low-salt buffer
[2] = biological target: GST-WASP(201–321) K225A/K226A (UniProt P42768); experiment: as above
[3] = biological target: GST-WASP(201–321) K225A/K226A/R227A (UniProt P42768); experiment: as above
[4] = biological target: GST-WASP(201–321) K225A/K226A/R227A/K230A/K231A/K232A (UniProt P42768); experiment: as above
[5] = biological target: GST-WASP(201–321) K225A/R227A (UniProt P42768); experiment: as above
[6] = biological target: GST-WASP(201–321) K226A (UniProt P42768); experiment: as above
[7] = biological target: GST-WASP(201–321) K226A/R227A (UniProt P42768); experiment: as above
[8] = biological target: GST-WASP(201–321) K230A (UniProt P42768); experiment: as above
[9] = biological target: GST-WASP(201–321) K230A/K231A (UniProt P42768); experiment: as above
[10] = biological target: GST-WASP(201–321) K230A/K231A/K232A (UniProt P42768); experiment: as above
[11] = biological target: GST-WASP(201–321) K230A/K232A (UniProt P42768); experiment: as above
[12] = biological target: GST-WASP(201–321) K231A (UniProt P42768); experiment: as above
[13] = biological target: GST-WASP(201–321) K231A/K232A (UniProt P42768); experiment: as above
[14] = biological target: GST-WASP(201–321) K232A (UniProt P42768); experiment: as above
[15] = biological target: GST-WASP(201–321) R227A (UniProt P42768); experiment: as above
[16] = biological target: GST-WASP(201–321) wild type (UniProt P42768); experiment: as above
[17] = biological target: GST-WASP(201–321) K230A (UniProt P42768); experiment: BLI; Octet Red; GST-WASP variants loaded on anti-GST sensors (10 μg/ml), dipped into a dilution range of Cdc42·GMPPNP; 50 mM Tris-HCl pH 7.5, 150 mM NaCl, 1 mM MgCl2, 0.02% Tween 20, 0.1% BSA, 0.05% sodium azide, 25 °C; GST-alone sensors subtracted

- Kd [1]: 2.8 µM
- Kd [2]: 7.4 µM
- Kd [3]: 8.8 µM
- Kd [4]: 98.6 µM
- Kd [5]: 7.5 µM
- Kd [6]: 5.4 µM
- Kd [7]: 5.7 µM
- Kd [8]: 9.7 µM
- Kd [9]: 12.9 µM
- Kd [10]: 36 µM
- Kd [11]: 18.4 µM
- Kd [12]: 12.4 µM
- Kd [13]: 21.7 µM
- Kd [14]: 12.2 µM
- Kd [15]: 4.3 µM
- Kd [16]: 0.5 µM
- Kd [17]: 0.105 µM
- koff [17]: 0.0498 s⁻¹
- kon [17]: 477000 M⁻¹ s⁻¹
Substance: Cdc42 Δ7 Q61L (from UniProt P60953 1-191) (natural protein)

Reference: article PMC6166713
